Measured values taken from patent publication US20230392166A1.

Target: GFP-BAX fusion protein
Assay: cell-based or functional assay

mCherry
percentage of cells with GFP-BAX translocation to mitochondria within 3.5 h after 1 µM staurosporine, live imaging of D407 cells (control without BCLXL): > 95%

mCherry-BCLXL fusion protein (from UniProt Q64373 1-233)
percentage of cells with punctate GFP-BAX (translocation to mitochondria) within 3.5 h after 1 µM staurosporine, live imaging of D407 cells: 8%
